This is an account of results in article PMC6992733, “Analysis of the polycystin complex (PCC) in human urinary exosome–like vesicles (ELVs)” (Scientific Reports, 2020).

Where “and” joins values, the source holds several entries; their conditions need not be identical. Equal entries are not always repeated.

Data set [1] concerns the molecule itself. Kind of data set: native gel or EMSA; purified urinary ELVs with 0.2-0.8% SDS, non reducing, incubated on ice 20 min without heating; native gel; western blot.
Data set [2] deals with the molecule itself. Kind of data set: SDS-PAGE and western blot; human RCTE cells, PC2 bands on SDS-PAGE western blot read as monomer, dimer and tetramer (Supplemental Fig. 2). A general note: Immunoblotting shows a protein as a band on a membrane.

B1: polycystin-2 (PC2) of urinary ELVs (natural protein, human (endogenous in urinary ELVs), UniProt Q13563 1-968, looked up)
chain: MVNSSRVQPQQPGDAKRPPAPRAPDPGRLMAGCAAVGASLAAPGGLCEQRGLEIEMQRIRQAAARDPPAGAAASPSPPLSSCSRQAWSRDNPGFEAEEEEEEVEGEEGGMVVEMDVEWRPGSRRSAASSAVSSVGARSRGLGGYHGAGHPSGRRRRREDQGPPCPSPVGGGDPLHRHLPLEGQPPRVAWAERLVRGLRGLWGTRLMEESSTNREKYLKSVLRELVTYLLFLIVLCILTYGMMSSNVYYYTRMMSQLFLDTPVSKTEKTNFKTLSSMEDFWKFTEGSLLDGLYWKMQPSNQTEADNRSFIFYENLLLGVPRIRQLRVRNGSCSIPQDLRDEIKECYDVYSVSSEDRAPFGPRNGTAWIYTSEKDLNGSSHWGIIATYSGAGYYLDLSRTREETAAQVASLKKNVWLDRGTRATFIDFSVYNANINLFCVVRLLVEFPATGGVIPSWQFQPLKLIRYVTTFDFFLAACEIIFCFFIFYYVVEEILEIRIHKLHYFRSFWNCLDVVIVVLSVVAIGINIYRTSNVEVLLQFLEDQNTFPNFEHLAYWQIQFNNIAAVTVFFVWIKLFKFINFNRTMSQLSTTMSRCAKDLFGFAIMFFIIFLAYAQLAYLVFGTQVDDFSTFQECIFTQFRIILGDINFAEIEEANRVLGPIYFTTFVFFMFFILLNMFLAIINDTYSEVKSDLAQQKAEMELSDLIRKGYHKALVKLKLKKNTVDDISESLRQGGGKLNFDELRQDLKGKGHTDAEIEAIFTKYDQDGDQELTEHEHQQMRDDLEKEREDLDLDHSSLPRPMSSRSFPRSLDDSEEDDDEDSGHSSRRRGSISSGVSYEEFQVLVRRVDRMEHSIGSIVSKIDAVIVKLEIMERAKLKRREVLGRLLDGVAEDERLGRDSEIHREQMERLVREELERWESDDAASQISHGLGTPVGLNGQPRPRSSRPSSSQSTEGMEGAGGNGSSNVHV
modifications: mature post-Golgi N-linked glycosylation (PNGase F sensitive, Endo H resistant)
notes: polycystin-2, human, product of PKD2, printed length 968 aa; about 10-13% is cleaved in the C-terminal tail N-terminal to the coiled-coil domain (833..872 aa); also called ELV PC2; source: endogenous, human urinary exosome-like vesicles (ELVs), detergent-solubilised
B1: the stoichiometry N (as a rule, the number of molecules, sites or subunits per partner or assembly) in data set [1] was determined as 2.

B2: polycystin-2 (PC2) of human renal cortical tubular epithelial (RCTE) cells (natural protein, human (endogenous in RCTE cells), UniProt Q13563 1-968, looked up)
chain: B1 chain
notes: polycystin-2, human, product of PKD2, printed length 968 aa; also called PC2 from cells; source: endogenous, human RCTE cells
As to B2, in data set [2], the “stoichiometry N” value is 2 and 4.
